The source of these data is US20180201951A1.

In this assay the target is interleukin 1 receptor 1 (Il1r1), murine (mouse) (UniProt P13504). As to the kind of experiment: cell-based or functional assay.
Sequence of UniProt P13504 (P13504 20-576): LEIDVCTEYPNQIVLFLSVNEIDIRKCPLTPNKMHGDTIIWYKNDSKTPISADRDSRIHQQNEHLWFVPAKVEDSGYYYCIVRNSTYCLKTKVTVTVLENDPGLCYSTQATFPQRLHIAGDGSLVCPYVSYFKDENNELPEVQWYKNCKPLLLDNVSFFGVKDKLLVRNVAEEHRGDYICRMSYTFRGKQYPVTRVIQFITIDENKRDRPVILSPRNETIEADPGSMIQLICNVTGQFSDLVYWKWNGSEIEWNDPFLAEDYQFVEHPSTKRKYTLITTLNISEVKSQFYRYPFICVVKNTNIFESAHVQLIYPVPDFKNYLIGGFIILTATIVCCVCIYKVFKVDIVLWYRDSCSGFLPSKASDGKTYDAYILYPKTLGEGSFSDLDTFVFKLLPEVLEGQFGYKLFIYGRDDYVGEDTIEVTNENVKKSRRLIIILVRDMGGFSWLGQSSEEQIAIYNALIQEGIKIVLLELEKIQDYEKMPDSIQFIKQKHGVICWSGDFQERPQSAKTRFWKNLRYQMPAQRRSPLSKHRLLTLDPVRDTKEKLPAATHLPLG

IL-1α (ligand) returned an NF-κB transcriptional activity (luciferase reporter), fold induction after IL-1α stimulation of Il1r1+/- cells of 4.8 fold and an NF-κB transcriptional activity (luciferase reporter), fold induction after IL-1α stimulation of wild-type (Il1r1+/+) cells of 6.3 fold.
